From patent US20240239894A1, “THERAPEUTIC BINDING MOLECULES” (MedImmune Limited, priority 2020, published 2024)

Tests used:
[1] = system: HT29-huB7-H4 Clone 26 cells; experiment: Confocal colocalization with LAMP1 and EEA1; assay type: cell-based, human; conditions: 24 hours, 5 μg/mL
Text: Confocal microscopy was used to determine intracellular trafficking of E02-INT by measuring co-localization with the early endosomal marker, Early Endosome Antigen 1 (EEA1) and the lysosomal marker, lysosomal-associated membrane protein 1 (LAMP1).

[2] = system: SKBR3 cell line (target cell); experiment: ADCC with primary human NK cells; assay type: cell-based; conditions: 1 μg/mL; NK cells from healthy donors
Text: When IgG antibodies bind cell surface antigens via their Fab domains, the Fc portion of the antibodies can engage with FcγRIIIa on natural killer cells. The interaction of the Fc domain with FcγRIIIa induces cross-linking of the FcγRs, which triggers the release of cytotoxic granules containing perforin and granzymes, leading to the death of the target cell, a process called antibody-dependent cellular cytotoxicity (ADCC). The potential of antibody E02-INT and E02-GL-SG3932 to initiate ADCC activity was evaluated utilizing isolated primary human NK cells and the human breast cancer SKBR3 cell line as the target cell.
Next, human breast cancer SK-BR-3 cells were co-cultured with NK cells isolated from six healthy donors in the presence of 1 μg/mL E02-GL-SG3932, antibody intermediate E02-INT, isotype-matched control antibody NIP228, and the isotype-matched control ADC NIP228-SG3932 (FIG. 37). ADCC activity was evaluated by Incycte® Annexin V Dye binding of extracellular surface exposure of phosphatidyl serine on apoptotic cells, yielding a bright and stable red fluorescent signal. The fold-change was based on maximum cell death of non-drug treated NK/SK-BR-3 co-cultured cells. Maximum cell death was calculated by dividing the average red objects in experimental wells by the average maximum cell death in Staurosporine treated SK-BR-3 cells.

[3] = system: MX-1 breast cancer xenograft; experiment: Xenograft efficacy; assay type: in vivo, CB-17 SCID mice; conditions: 10 mg/kg
Description: The antitumor activity of antibody intermediate E02-INT and E02-GL-SG3932 was investigated in human tumor xenograft mouse models using immunodeficient CB-17 SCID mice.
The effect of E02-GL-SG3932, the isotype-matched control ADC NIP228-SG3932, and E02-INT, the antibody intermediate of E02-GL-SG3932 was evaluated in the MX-1 breast cancer xenograft model. Animals were injected SC with MX-1 cells and after tumors grew in volume to a mean of 270 mm3, animals were randomized and each mouse received an IV injection of test or control articles.

[4] = system: MDA-MB-468; experiment: E02-GL MESF on cell line; assay type: cell-based, human
Description: A number of cancer cell lines were treated with clone E02-GL-SG3249 (e.g. conjugated to a cytotoxin), as outlined in Table 15.

[5] = system: HCC1954; experiment: E02-GL MESF on cell line; assay type: cell-based
[6] = system: OVCAR4 xenograft; experiment: Tumour xenograft; assay type: in vivo, mice; conditions: cisplatin refractory ovarian cancer, high B7-H4
Description: (§1) Tumour xenografts were prepared on mice using the following cancer cell lines: • OVCAR4 (Cisplatin refractory ovarian cancer; high B7-H4 expression) • HCC1569 (HER2 positive breast cancer; heterogeneous B7-H4 expression) • MDA-MB-468 (Triple negative breast cancer; low B7-H4 expression)

[7] = system: MDA-MB-468 xenograft; experiment: Tumour xenograft; assay type: in vivo, mice; conditions: triple negative breast cancer, low B7-H4
Description: as §1

[8] = system: HCC1569 xenograft; experiment: Tumour xenograft; assay type: in vivo, mice; conditions: HER2 positive breast cancer, heterogeneous B7-H4
Description: as §1

[9] = system: HBCx-11; experiment: PDX model; assay type: in vivo; conditions: HBCx-11, Breast (Triple negative); 0.3 mg/kg vs vehicle
Text: (§2) Patient derived xenograft models were generated using cancer cell lines with varying levels of B7-H4 expression, as outlined in Table 16. […] “E02-GL” antibody has the CDR/VH sequences (e.g. corresponds to) of ZY0EQD-E02 (“GL” means the antibody has been germlined).

[10] = system: T168; experiment: PDX model; assay type: in vivo; conditions: T168, Breast (HR+); 0.3 mg/kg vs vehicle
Text: as §2

[11] = system: CTG-052; experiment: PDX model; assay type: in vivo; conditions: CTG-052, Breast (Triple negative); 0.3 mg/kg vs vehicle
Text: as §2

[12] = system: CTG-1106; experiment: PDX model; assay type: in vivo; conditions: CTG-1106, Breast (Triple negative); 0.3 mg/kg vs vehicle
Text: as §2

[13] = system: CTG-0992; experiment: PDX model; assay type: in vivo; conditions: CTG-0992, Ovarian; 0.3 mg/kg vs vehicle
Text: as §2

[14] = system: HBCx-10; experiment: PDX model; assay type: in vivo; conditions: HBCx-10, Breast (Triple negative); 0.3 mg/kg vs vehicle
Text: as §2

[15] = system: T272; experiment: PDX model; assay type: in vivo; conditions: T272, Breast (HR+); 0.3 mg/kg vs vehicle
Text: as §2

[16] = system: T330; experiment: PDX model; assay type: in vivo; conditions: T330, Breast (Triple negative); 0.3 mg/kg vs vehicle
Text: as §2

[17] = system: HCC1569 cells; experiment: Western blot DNA damage response; assay type: cell-based; conditions: 100 ng/ml ADC, 100 pM SG3199
Description: Following treatment of HCC1569 cells with E02-GL-SG3249, and SG3199 as a control (at 100 ng/ml and 100 pM, respectively), lysate was prepared and subjected to western blot analysis with antibodies to pATR, ATR, pChk1, Chk1, pRPA32, RPA32, pATM, ATM (all involved in ATR signalling), pChk2, ChK2, pKAP1, KAP1 (all involved in ATM signalling), pDNA-PK, DNA-PK, pH2AX, H2AX, pBRCA1, BRCA1 (all involved in DNA double strand break), pFANCD2 and GAPDH (load control). Negative controls were PBS treatment alone.

[18] = system: HCC1954 tumour xenograft; experiment: gamma H2AX immunohistochemistry in tumour xenograft; assay type: in vivo; conditions: up to 10 days following treatment
Description: Tumour xenograft models were generated (using HCC1954 cells), and treated with E02-GL-SG3249. “E02-GL” antibody has the CDR/VH sequences (e.g. corresponds to) of ZY0EQD-E02 (“GL” means the antibody has been germlined).
Immunohistochemistry was then performed to determine gamma H2AX (marker of double strand breaks) following treatment.

Row | Molecule | intracellular trafficking after internalization [1] | ADCC activity beyond untreated co-cultured cells [2] | TGI [3] | E02-GL MESF [4] | E02-GL MESF [5] | tumour volume versus vehicle [6] | tumour volume versus vehicle [7] | tumour volume versus vehicle [8] | % Tumour Growth Inhibition (TGI) [9] | % Tumour Growth Inhibition (TGI) [10] | % Tumour Growth Inhibition (TGI) [11] | % Tumour Growth Inhibition (TGI) [12] | % Tumour Growth Inhibition (TGI) [13] | % Tumour Growth Inhibition (TGI) [14] | % Tumour Growth Inhibition (TGI) [15] | % Tumour Growth Inhibition (TGI) [16] | DNA damage response signalling (ATR, ATM, double strand break markers) [17] | gamma H2AX positive tumour cells [18]
1 | E02-GL: germlined ZY0EQD-E02, VH SEQ ID NO: 45, VL SEQ ID NO: 34; antibody intermediate of E02-GL-SG3932 (antibody, V domains shown) VH: QVQLQQWGAGLLKPSETLSLACTVYGGSFSGYYWNWIRQPPGKGLEWIGEINHSGSTSYNPSLKSRVTISVDTSKNQFSLKLSSVTAADTAVYYCARVLYNWNVDSWGQGTLVTVSS VL: DIQMTQSPSSLSASVGDRVTITCRASQDIRNDVGWYQQKPGKAPKRLIYAASRLQSGVPSRFSGSGSGTEFTLTISSLQPEDFATYYCLQHNSYPRTFGQGTKVEIK | trafficked to the lysosomal compartment | significant increase in ADCC activity | −1% | 92,157 MESF | 47,173 MESF |  |  |  |  |  |  |  |  |  |  |  |  | 
2 | E02-GL-SG3249: clone E02-GL (Maia heavy chain backbone) conjugated to the PBD cytotoxin SG3249 (conjugate) heavy: QVQLQQWGAGLLKPSETLSLACTVYGGSFSGYYWNWIRQPPGKGLEWIGEINHSGSTSYNPSLKSRVTISVDTSKNQFSLKLSSVTAADTAVYYCARVLYNWNVDSWGQGTLVTVSSASTKGPSVFPLAPSSKSTSGGTAALGCLVKDYFPEPVTVSWNSGALTSGVHTFPAVLQSSGLYSLSSVVTVPSSSLGTQTYICNVNHKPSNTKVDKRVEPKSCDKTHTCPPCPAPELLGGPSCVFLFPPKPKDTLMISRTPEVTCVVVDVSHEDPEVKFNWYVDGVEVHNAKTKPREEQYNSTYRVVSVLTVLHQDWLNGKEYKCKVSNKALPAPIEKTISKAKGQPREPQVYTLPPSREEMTKNQVSLTCLVKGFYPSDIAVEWESNGQPENNYKTTPPVLDSDGSFFLYSKLTVDKSRWQQGNVFSCSVMHEALHNHYTQKSLSLSPGK light: DIQMTQSPSSLSASVGDRVTITCRASQDIRNDVGWYQQKPGKAPKRLIYAASRLQSGVPSRFSGSGSGTEFTLTISSLQPEDFATYYCLQHNSYPRTFGQGTKVEIKRTVAAPSVFIFPPSDEQLKSGTASVVCLLNNFYPREAKVQWKVDNALQSGNSQESVTEQDSKDSTYSLSSTLTLSKADYEKHKVYACEVTHQGLSSPVTKSFNRGEC |  |  |  |  |  | significant decrease in tumour volume | significant decrease in tumour volume | significant decrease in tumour volume | 80% | 60% | 30% | 30% | 0% | 90% | 30% | 70% | leads to double strand DNA breaks | Increased numbers of gamma H2AX positive tumour cells
